Source: paper PMC3426162 (Archaea, 2012)

Tests used:
[1] = biological target: T1, AMP-dependent ACS (Mthe_1194) (Methanothrix thermoacetophila, UniProt A0B8F1); assay: coupled assay via auxiliary enzymes (myokinase, pyruvate kinase, lactate dehydrogenase), NADH […] nm; type: biochemical; settings: read-out: 50% reduction of the reaction rate
T1 construct: gene acsA; full-length gene in pASK-IBA5, N-terminal Strep-tag II, E. coli BL21 (DE3) pLysS; approximately 75 kDa on SDS gel
T1 sequence (A0B8F1 1-659): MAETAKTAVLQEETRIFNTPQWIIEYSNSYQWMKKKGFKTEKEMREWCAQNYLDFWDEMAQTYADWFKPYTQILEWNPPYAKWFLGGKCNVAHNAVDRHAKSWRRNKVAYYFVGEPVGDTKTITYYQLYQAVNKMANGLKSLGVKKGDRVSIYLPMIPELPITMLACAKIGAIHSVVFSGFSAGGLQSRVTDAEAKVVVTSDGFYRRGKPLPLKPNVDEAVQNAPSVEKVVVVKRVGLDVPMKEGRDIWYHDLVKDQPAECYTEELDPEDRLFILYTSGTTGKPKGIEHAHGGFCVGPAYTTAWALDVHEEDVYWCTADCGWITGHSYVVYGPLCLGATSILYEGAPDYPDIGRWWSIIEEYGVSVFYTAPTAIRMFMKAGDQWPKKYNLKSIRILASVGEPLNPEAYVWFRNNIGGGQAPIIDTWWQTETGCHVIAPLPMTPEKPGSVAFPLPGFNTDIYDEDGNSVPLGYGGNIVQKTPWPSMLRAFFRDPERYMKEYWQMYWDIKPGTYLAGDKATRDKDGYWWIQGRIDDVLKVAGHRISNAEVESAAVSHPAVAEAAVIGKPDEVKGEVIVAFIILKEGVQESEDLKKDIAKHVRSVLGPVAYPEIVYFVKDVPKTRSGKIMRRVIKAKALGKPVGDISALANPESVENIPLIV

[2] = biological target: T1, AMP-dependent ACS (Mthe_1194); assay: discontinuous pyrophosphate detection (molybdate / Eikonogen, […] nm); type: biochemical; settings: co-substrates ATP and CoA; 55°C
purified protein [3] = substrate: Nc1ncnc2c1ncn2[C@@H]1O[C@H](COP(=O)(O)OP(=O)(O)OP(=O)(O)O)[C@@H](O)[C@H]1O; assay: purified protein; type: biochemical, Methanothrix thermoacetophila; settings: co-substrates acetate and CoA, 55°C
purified protein [4] = substrate: CC(C)(COP(=O)(O)OP(=O)(O)OC[C@H]1O[C@@H](n2cnc3c(N)ncnc32)[C@H](O)[C@@H]1OP(=O)(O)O)[C@@H](O)C(=O)NCCC(=O)NCCS; assay: purified protein; type: biochemical, Methanothrix thermoacetophila; settings: co-substrates acetate and ATP, 55°C
purified protein [5] = substrate: CC(=O)O; assay: purified protein; settings: 50 mM HEPES pH 7.5, 5 mM MgCl2, 1 mM CoA, 2.5 mM ATP, 55°C

## O=P(O)(O)OP(=O)(O)O [PPi]
[1]
  IC50: ~250 µM

## CCC(=O)O [propionate]
[2]
  discontinuous pyrophosphate detection (molybdate / Eikonogen, 580 nm): A reaction was also observed with propionate

B1: AMP-dependent ACS (Mthe_1194) (Methanothrix thermoacetophila PT) (protein)
chain: T1 sequence (A0B8F1 1-659)
notes: full-length gene in pASK-IBA5, N-terminal Strep-tag II, E. coli BL21 (DE3) pLysS; approximately 75 kDa on SDS gel
Purified protein [3]
  Km: 20 µM
Purified protein [4]
  Km: 14.5 µM
Purified protein [5]
  Km: 0.4 mM
